Laboratory results from article PMC9482650, “Quantitative fragmentomics allow affinity mapping of interactomes” (Nature Communications, 2022).

T1: LRRC7, Q96NW7
T1 sequence (Q96NW7 1440-1537, limits assumed, looked up): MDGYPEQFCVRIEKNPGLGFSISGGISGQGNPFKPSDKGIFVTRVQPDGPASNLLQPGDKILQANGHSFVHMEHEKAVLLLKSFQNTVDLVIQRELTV

T2: MPP6, Q9NZW5
T2 sequence (Q9NZW5 125-219, limits assumed, looked up): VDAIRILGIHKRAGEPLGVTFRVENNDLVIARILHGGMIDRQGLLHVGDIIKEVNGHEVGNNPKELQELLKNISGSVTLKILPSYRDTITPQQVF

T3: NHERF3_1, Q5T2W1
T3 sequence (Q5T2W1 4-100, limits assumed, looked up): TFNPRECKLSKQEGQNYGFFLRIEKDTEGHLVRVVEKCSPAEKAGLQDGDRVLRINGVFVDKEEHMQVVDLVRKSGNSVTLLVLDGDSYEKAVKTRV

T4: NHERF3_3, Q5T2W1
T4 sequence (Q5T2W1 238-333, limits assumed, looked up): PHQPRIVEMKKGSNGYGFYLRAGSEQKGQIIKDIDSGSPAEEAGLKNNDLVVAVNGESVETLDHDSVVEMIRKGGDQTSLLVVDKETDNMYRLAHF

T5: PARD3B_1, Q8TEW8
T5 sequence (Q8TEW8 196-299, limits assumed, looked up): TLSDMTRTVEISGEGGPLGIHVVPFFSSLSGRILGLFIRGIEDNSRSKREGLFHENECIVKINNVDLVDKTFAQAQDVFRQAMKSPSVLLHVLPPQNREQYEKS

T6: SNTG1, Q9NSN8
T6 sequence (Q9NSN8 52-150, limits assumed, looked up): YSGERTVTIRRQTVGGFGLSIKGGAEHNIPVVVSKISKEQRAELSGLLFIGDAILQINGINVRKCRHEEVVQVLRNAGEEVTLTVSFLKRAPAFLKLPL

T7: SNTG2, Q9NY99
T7 sequence (Q9NY99 68-166, limits assumed, looked up): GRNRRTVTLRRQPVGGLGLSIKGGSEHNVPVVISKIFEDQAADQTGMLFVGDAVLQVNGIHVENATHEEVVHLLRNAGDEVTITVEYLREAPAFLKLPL

T8: TIAM2, Q8IVF5
T8 sequence (Q8IVF5 885-986, limits assumed, looked up): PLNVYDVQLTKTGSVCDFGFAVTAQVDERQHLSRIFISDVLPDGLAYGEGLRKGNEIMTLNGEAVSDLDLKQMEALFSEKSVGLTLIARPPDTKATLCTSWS


Assays:
Assay in all cases: holdup assay
Design in all cases: key: below the threshold = too weak to quantify, mostly under pKd 3.1 to 4
Settings in all cases: plain residues with an end cap or a label only (N-terminal biotin on a linker: ado-ado)
ARHGEF12, Q9NZN5-2 = biological target: ARHGEF12, Q9NZN5-2
DLG1_2, Q12959 = biological target: DLG1_2, Q12959
DLG1_3, Q12959 = biological target: DLG1_3, Q12959
DLG4_2, P78352 = biological target: DLG4_2, P78352
DLG4_3, P78352 = biological target: DLG4_3, P78352
GRASP, Q7Z6J2 = biological target: GRASP, Q7Z6J2
GRIP2_6, Q9C0E4 = biological target: GRIP2_6, Q9C0E4
IL16_1, Q14005 = biological target: IL16_1, Q14005
IL16_4, Q14005 = biological target: IL16_4, Q14005
Inadl_1, Q8NI35 = biological target: Inadl_1, Q8NI35
Inadl_3, Q8NI35 = biological target: Inadl_3, Q8NI35
LAP2, Q96RT1 = biological target: LAP2, Q96RT1
LDB3, O75112 = biological target: LDB3, O75112
LIMK2, P53671 = biological target: LIMK2, P53671
LRRC7, Q96NW7 = biological target: T1, LRRC7, Q96NW7
MAST2, Q6P0Q8 = biological target: MAST2, Q6P0Q8
MPP6, Q9NZW5 = biological target: T2, MPP6, Q9NZW5
NHERF3_1, Q5T2W1 = biological target: T3, NHERF3_1, Q5T2W1
NHERF3_3, Q5T2W1 = biological target: T4, NHERF3_3, Q5T2W1
NHERF4_4, Q86UT5 = biological target: NHERF4_4, Q86UT5
PARD3B_1, Q8TEW8 = biological target: T5, PARD3B_1, Q8TEW8
PARD3_3, Q8TEW0 = biological target: PARD3_3, Q8TEW0
PICK1, Q9NRD5 = biological target: PICK1, Q9NRD5
PTPN3, P26045 = biological target: PTPN3, P26045
SCRIB_1, Q14160 = biological target: SCRIB_1, Q14160
SCRIB_3, Q14160 = biological target: SCRIB_3, Q14160
SNTG1, Q9NSN8 = biological target: T6, SNTG1, Q9NSN8
SNTG2, Q9NY99 = biological target: T7, SNTG2, Q9NY99
TIAM2, Q8IVF5 = biological target: T8, TIAM2, Q8IVF5
TJP1_3, Q07157 = biological target: TJP1_3, Q07157
Chain of TJP1_3, Q07157 (Q07157 416-512): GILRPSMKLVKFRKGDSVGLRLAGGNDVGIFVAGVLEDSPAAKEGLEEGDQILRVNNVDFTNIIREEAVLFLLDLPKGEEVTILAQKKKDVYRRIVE

Chain of GRIP2_6, Q9C0E4 (Q9C0E4 648-740): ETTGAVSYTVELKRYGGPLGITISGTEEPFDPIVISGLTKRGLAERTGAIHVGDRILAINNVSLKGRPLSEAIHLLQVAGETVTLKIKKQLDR
Chain of GRASP, Q7Z6J2 (Q7Z6J2 96-193): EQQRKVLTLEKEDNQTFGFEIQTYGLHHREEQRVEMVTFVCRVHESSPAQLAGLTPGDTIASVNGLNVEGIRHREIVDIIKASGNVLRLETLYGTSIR
Chain of NHERF4_4, Q86UT5 (Q86UT5 464-550): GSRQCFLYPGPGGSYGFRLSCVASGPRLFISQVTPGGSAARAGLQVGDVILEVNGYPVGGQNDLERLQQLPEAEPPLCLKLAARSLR
Chain of LDB3, O75112 (O75112 1-94): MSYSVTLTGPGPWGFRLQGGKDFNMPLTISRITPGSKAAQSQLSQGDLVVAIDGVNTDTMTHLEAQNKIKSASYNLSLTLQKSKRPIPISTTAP
Chain of PARD3_3, Q8TEW0 (Q8TEW0 582-685): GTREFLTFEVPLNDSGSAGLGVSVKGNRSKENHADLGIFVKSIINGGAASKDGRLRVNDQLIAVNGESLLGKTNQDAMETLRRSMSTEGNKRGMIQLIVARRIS
Chain of DLG4_2, P78352 (P78352 155-259): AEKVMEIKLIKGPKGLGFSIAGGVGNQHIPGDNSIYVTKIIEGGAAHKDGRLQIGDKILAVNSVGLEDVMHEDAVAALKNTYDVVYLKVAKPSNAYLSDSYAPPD
Chain of PICK1, Q9NRD5 (Q9NRD5 17-115): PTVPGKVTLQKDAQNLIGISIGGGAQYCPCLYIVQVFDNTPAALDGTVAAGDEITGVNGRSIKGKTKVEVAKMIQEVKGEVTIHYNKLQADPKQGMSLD
Chain of Inadl_1, Q8NI35 (Q8NI35 113-229): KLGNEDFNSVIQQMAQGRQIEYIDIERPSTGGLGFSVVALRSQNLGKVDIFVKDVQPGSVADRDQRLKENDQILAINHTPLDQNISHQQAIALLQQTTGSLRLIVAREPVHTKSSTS
Chain of ARHGEF12, Q9NZN5-2 (Q9NZN5 other isoform, or with tags, fused parts or gaps): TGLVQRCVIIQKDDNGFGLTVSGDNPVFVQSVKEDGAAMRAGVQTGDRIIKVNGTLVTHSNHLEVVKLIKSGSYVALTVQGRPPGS
Chain of IL16_4, Q14005 (Q14005 1229-1329): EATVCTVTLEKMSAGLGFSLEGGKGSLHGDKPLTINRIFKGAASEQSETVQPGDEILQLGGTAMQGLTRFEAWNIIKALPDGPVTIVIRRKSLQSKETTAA
Chain of SCRIB_1, Q14160 (Q14160 718-814): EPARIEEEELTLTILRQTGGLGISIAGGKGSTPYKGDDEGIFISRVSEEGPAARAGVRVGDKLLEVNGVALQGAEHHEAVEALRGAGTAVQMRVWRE
Chain of LAP2, Q96RT1 (Q96RT1 other isoform, or with tags, fused parts or gaps): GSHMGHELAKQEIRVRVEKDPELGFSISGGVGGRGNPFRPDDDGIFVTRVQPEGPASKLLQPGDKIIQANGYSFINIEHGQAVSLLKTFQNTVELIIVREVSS
Chain of Inadl_3, Q8NI35 (Q8NI35 359-469): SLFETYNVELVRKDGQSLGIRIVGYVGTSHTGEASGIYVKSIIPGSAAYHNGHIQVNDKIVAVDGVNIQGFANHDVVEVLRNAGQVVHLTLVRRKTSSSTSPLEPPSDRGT
Chain of DLG4_3, P78352 (P78352 306-403): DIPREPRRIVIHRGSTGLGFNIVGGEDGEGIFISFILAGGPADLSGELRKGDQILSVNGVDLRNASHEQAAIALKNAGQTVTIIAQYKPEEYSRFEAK
Chain of SCRIB_3, Q14160 (Q14160 999-1103): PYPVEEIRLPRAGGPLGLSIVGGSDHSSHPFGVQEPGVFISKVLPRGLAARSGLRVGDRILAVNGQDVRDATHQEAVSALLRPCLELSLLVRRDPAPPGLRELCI
Chain of DLG1_3, Q12959 (Q12959 457-571): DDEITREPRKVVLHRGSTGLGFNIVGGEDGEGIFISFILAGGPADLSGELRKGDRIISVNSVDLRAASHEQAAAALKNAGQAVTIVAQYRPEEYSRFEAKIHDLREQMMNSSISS
Chain of DLG1_2, Q12959 (Q12959 314-412): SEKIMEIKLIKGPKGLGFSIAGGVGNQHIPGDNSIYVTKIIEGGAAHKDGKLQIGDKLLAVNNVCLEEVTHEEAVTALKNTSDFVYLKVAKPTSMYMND
Chain of PTPN3, P26045 (P26045 505-587): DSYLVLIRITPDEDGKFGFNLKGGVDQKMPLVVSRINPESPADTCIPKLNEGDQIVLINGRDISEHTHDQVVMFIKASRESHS
Chain of LIMK2, P53671 (P53671 143-248): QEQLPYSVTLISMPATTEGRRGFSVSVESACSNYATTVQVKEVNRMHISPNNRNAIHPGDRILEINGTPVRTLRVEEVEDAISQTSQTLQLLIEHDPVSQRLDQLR
Chain of MAST2, Q6P0Q8 (Q6P0Q8 1099-1202): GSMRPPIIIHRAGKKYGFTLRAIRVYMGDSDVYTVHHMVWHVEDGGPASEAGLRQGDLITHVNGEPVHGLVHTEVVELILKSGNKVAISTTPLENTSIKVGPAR
Chain of IL16_1, Q14005 (Q14005 210-306): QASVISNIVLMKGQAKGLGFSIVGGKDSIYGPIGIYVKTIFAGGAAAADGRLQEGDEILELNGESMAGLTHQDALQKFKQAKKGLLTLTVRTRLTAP

| Binder | pKd (ARHGEF12, Q9NZN5-2) | pKd (DLG1_2, Q12959) | pKd (DLG1_3, Q12959) | pKd (DLG4_2, P78352) | pKd (DLG4_3, P78352) | pKd (GRASP, Q7Z6J2) | pKd (GRIP2_6, Q9C0E4) | pKd (IL16_1, Q14005) | pKd (IL16_4, Q14005) | pKd (Inadl_1, Q8NI35) | pKd (Inadl_3, Q8NI35) | pKd (LAP2, Q96RT1) | pKd (LDB3, O75112) | pKd (LIMK2, P53671) | pKd (LRRC7, Q96NW7) | pKd (MAST2, Q6P0Q8) | pKd (MPP6, Q9NZW5) | pKd (NHERF3_1, Q5T2W1) | pKd (NHERF3_3, Q5T2W1) | pKd (NHERF4_4, Q86UT5) | further results |
| --- | --- | --- | --- | --- | --- | --- | --- | --- | --- | --- | --- | --- | --- | --- | --- | --- | --- | --- | --- | --- | --- |
| HSGYRLNDYV [CLDN14, O95500] | below the threshold | 3.77 | below the threshold | below the threshold | below the threshold | 3.74 | below the threshold | below the threshold | below the threshold | below the threshold | below the threshold | below the threshold | below the threshold | below the threshold | below the threshold | 3.89 | 3.9 | 4.59 | below the threshold | 3.94 | pKd (PARD3B_1, Q8TEW8): below the threshold; pKd (PARD3_3, Q8TEW0): 3.83; pKd (PICK1, Q9NRD5): 4.13; pKd (PTPN3, P26045): below the threshold; pKd (SCRIB_1, Q14160): below the threshold; pKd (SCRIB_3, Q14160): below the threshold; pKd (SNTG1, Q9NSN8): below the threshold; pKd (SNTG2, Q9NY99): below the threshold; pKd (TIAM2, Q8IVF5): below the threshold; pKd (TJP1_3, Q07157): below the threshold |
| QSPANIYYKV [EFNB1, P52799] | below the threshold | below the threshold | below the threshold | below the threshold | below the threshold | below the threshold | 4.4 | below the threshold | below the threshold | 3.82 | below the threshold | below the threshold | below the threshold | below the threshold | below the threshold | 4.56 | below the threshold | below the threshold | below the threshold | below the threshold | pKd (PARD3B_1, Q8TEW8): 3.66; pKd (PARD3_3, Q8TEW0): below the threshold; pKd (PICK1, Q9NRD5): below the threshold; pKd (PTPN3, P26045): below the threshold; pKd (SCRIB_1, Q14160): below the threshold; pKd (SCRIB_3, Q14160): below the threshold; pKd (SNTG1, Q9NSN8): below the threshold; pKd (SNTG2, Q9NY99): below the threshold; pKd (TIAM2, Q8IVF5): 4.1; pKd (TJP1_3, Q07157): below the threshold |

More lines, main results first:

| pKd (ARHGEF12, Q9NZN5-2) | pKd (DLG1_2, Q12959) | pKd (DLG1_3, Q12959) | pKd (DLG4_2, P78352) | pKd (DLG4_3, P78352) | pKd (GRASP, Q7Z6J2) | pKd (GRIP2_6, Q9C0E4) | pKd (IL16_1, Q14005) | pKd (IL16_4, Q14005) | pKd (Inadl_1, Q8NI35) | pKd (Inadl_3, Q8NI35) | pKd (LAP2, Q96RT1) | pKd (LDB3, O75112) | pKd (LIMK2, P53671) | pKd (LRRC7, Q96NW7) | pKd (MAST2, Q6P0Q8) | pKd (MPP6, Q9NZW5) | pKd (NHERF3_1, Q5T2W1) | pKd (NHERF3_3, Q5T2W1) | pKd (NHERF4_4, Q86UT5) | Binder | further results |
| --- | --- | --- | --- | --- | --- | --- | --- | --- | --- | --- | --- | --- | --- | --- | --- | --- | --- | --- | --- | --- | --- |
| 3.54 | 3.76 | below the threshold | below the threshold | below the threshold | below the threshold | below the threshold | below the threshold | below the threshold | below the threshold | below the threshold | 3.86 | below the threshold | below the threshold | below the threshold | 4.82 | below the threshold | below the threshold | below the threshold | 3.88 | TLPRKRMSSI [GPRC6A, Q5T6X5] | pKd (PARD3B_1, Q8TEW8): below the threshold; pKd (PARD3_3, Q8TEW0): below the threshold; pKd (PICK1, Q9NRD5): 4.13; pKd (PTPN3, P26045): 4.11; pKd (SCRIB_1, Q14160): below the threshold; pKd (SCRIB_3, Q14160): 3.49; pKd (SNTG1, Q9NSN8): below the threshold; pKd (SNTG2, Q9NY99): below the threshold; pKd (TIAM2, Q8IVF5): 4.07; pKd (TJP1_3, Q07157): below the threshold |
| below the threshold | below the threshold | below the threshold | below the threshold | below the threshold | below the threshold | below the threshold | below the threshold | below the threshold | below the threshold | below the threshold | below the threshold | below the threshold | below the threshold | below the threshold | below the threshold | 3.79 | below the threshold | below the threshold | 3.82 | TSSMRGMDAV [RSRC2, Q7L4I2] | pKd (PARD3B_1, Q8TEW8): below the threshold; pKd (PARD3_3, Q8TEW0): below the threshold; pKd (PICK1, Q9NRD5): below the threshold; pKd (PTPN3, P26045): 3.67; pKd (SCRIB_1, Q14160): below the threshold; pKd (SCRIB_3, Q14160): below the threshold; pKd (SNTG1, Q9NSN8): below the threshold; pKd (SNTG2, Q9NY99): below the threshold; pKd (TIAM2, Q8IVF5): below the threshold; pKd (TJP1_3, Q07157): below the threshold |
| 3.56 | 4.89 | 3.97 | 4.82 | below the threshold | 3.5 | below the threshold | 4.1 | below the threshold | below the threshold | 4.81 | 4.05 | below the threshold | below the threshold | below the threshold | 5.1 | below the threshold | 3.64 | below the threshold | below the threshold | TACCHSETVV [TGFA, P01135] | pKd (PARD3B_1, Q8TEW8): below the threshold; pKd (PARD3_3, Q8TEW0): 3.85; pKd (PICK1, Q9NRD5): below the threshold; pKd (PTPN3, P26045): 4.41; pKd (SCRIB_1, Q14160): 4.3; pKd (SCRIB_3, Q14160): 4.14; pKd (SNTG1, Q9NSN8): 4.43; pKd (SNTG2, Q9NY99): 4.38; pKd (TIAM2, Q8IVF5): below the threshold; pKd (TJP1_3, Q07157): below the threshold |
